Assay results taken from patent US20130108682A1, “WOUND CARE PRODUCT COMPRISING A CATHELICIDIN POLYPEPTIDE” (LIPOPEPTIDE AB, priority 2007, published 2013).

Assay: Release of LL-37 from coated polyurethane (PU) foam, quantified by ELISA
Assay type: physicochemical
Conditions: for % LL-37 released in solution: PU foam, data not shown
Method: LL-37 dissolved in PBS or ethanol was absorbed onto PU foam at a concentration of 25 μg LL-37/cm^2. A 1×1 cm piece of each preparation was cut, placed into a glass vial containing 3 ml PBS, and incubated under agitation for 24 h. At various time points (10, 20, 45, 120 min, and 24 h), 100 μl samples were collected and the amount of LL-37 released in solution was evaluated by ELISA. Results are expressed as the % LL-37 released in solution.
LL-37 was dissolved in ethanol or in PBS and 1 ml suspension was dropped onto 2×2 cm pieces of polyurethane (PU) foam (Brightwake, Kirkby-in-Ashfield, United Kingdom). The samples were allowed to dry at room temperature (RT) until no further weight loss could be recorded. Unless otherwise noted, a LL-37 solution at 100 μg/ml was used, resulting in a concentration of 25 μg LL-37/cm^2.
LL-37 was also mixed with various excipients before being applied onto the 2×2 cm PU foams. LL-37 dissolved in PBS was added to dry galactolipid and the resulting dispersion was vigorously shaken for 1 h. The galactolipid concentration was 0.2% (w/w). LL-37 dissolved in water was added to a preformed gel consisting of 25% poloxamer (Lutrol F127) in water. The resulting mixtures of about 1 g were heated at about 60° C. for about 10 min to evaporate the alcohol. The formulations were then applied with a spatula on 2×2 cm pieces of PU. In case the formulation contained water, PU foams were dried at RT for at least 24 h.
To release LL-37 from coated PU foam, 1×1 cm samples were cut and weighed in order to calculate the amount of LL-37 present in each sample. Each PU foam sample was placed into a 15 ml glass vial containing 3 ml PBS and incubated at RT for the indicated time period with constant shaking of 6 rpm. At various time intervals (10, 20, 45, 120 min, and 24 h), 100 μl release sample was removed for analysis and replaced with 100 μl fresh PBS. Release samples were stored at 4° C. until analysis, usually for 24 h.
The release was calculated as the total amount of LL-37 in the release liquid divided by the amount of loaded LL-37 in the sample.
LL-37 was detected and quantified using an enzyme-linked immunosorbent assay (ELISA) based on the protocol developed by Lindgreen and colleagues (Lindgreen 2004). Medium binding capacity 96-well plates (Greiner Bio-one, Frickenhausen Germany) were coated with […] rabbit IgG anti-LL-37 antibodies (Agrisera, Vännäs, Sweden) in 200 μl coating buffer (0.1M bicarbonate buffer, pH 9.0) for 18 to 24 h at 2-8° C. […] Reaction was stopped by addition of 50 μl 1 M sulfuric acid and absorbance immediately read at 450 nm (OD450 nm) using a VERSAmax microplate reader equipped with SoftMax Pro software for analysis (Molecular Devices).

Sequence: LLGDFFRKSKEKIGKEFKRIVQRIKDFLRNLVPRTES [LL-37]
- % LL-37 released in solution (maximum) (PU foam with 25 μg LL-37, peptide formulated in PBS or in ethanol, 3 ml PBS, shaking, after 24 h incubation): 30%
- % LL-37 released in solution (LL-37 formulated in galactolipid (ethanol or PBS solutions)): No detectable
- % LL-37 released in solution (LL-37 formulated in poloxamer (Lutrol)): 1%
- LL-37 concentration in release sample as determined by ELISA (release sample from PU foam where LL-37 in PBS has been absorbed, used in second chemotaxis experiment): 4,500 ng/ml
